Assay [1] deals with T1, His-tagged human EGFR (human, UniProt P00533 25-645, limits assumed).
T1 construct: also called huEGFR
Put plainly: BLI (Octet), scFv-His coupled to AR2G sensors, His-tagged human EGFR in solution, 1:1 global fit.
Description: (§1) Fc-containing protein was captured to anti-human Fc (AHC) sensor tips by loading for 180 seconds at 10 μg/ml. Alternatively, His-tagged proteins were covalently coupled at 10 ug/ml to AR2G tips using manufacturer protocol. After a 60-second baseline step, a 180- to 300-second association phase with serial dilutions (0-200 nM; 1:2.5 dilution factor) or a single 100 nM concentration of purified human EGFR in assay buffer (phosphate-buffered saline containing 0.1% BSA, 0.05% Tween20) was performed, followed by a 300- to 600—second dissociation phase in assay buffer. Regeneration was achieved using 10 mM glycine, pH 1.5. Binding curves were globally fit to a 1:1 model to extract the dissociation constants, KD. Binding kinetics for each protein were assessed in duplicate, with tabulated values reported as average±standard deviation.

The target in assay [2] is T1, His-tagged human EGFR. The assay is described as above. The source holds these as a separate data set.
Description: as §1
In assay [3] the target is T2, EGFR on BxPC-3 cells (UniProt P00533 25-1210, limits assumed). The assay can be described thus: cell-based or functional assay.
Assay [4] has as its target T2, EGFR on BxPC-3 cells. The assay can be described thus: cell-based or functional assay. This is another data set of the same source.

Like-named read-outs stand apart in the source and are kept apart here.

B1: SI-79R2 (scFv)
scFv: EIVMTQSPSTLSASVGDRVIITCRASQSIGTNIHWYQQKPGKAPKLLIYYASESISGIPSRFSGSGSGAEFTLTISSLQPDDFATYYCQQNNNWPTTFGQGTKLTVLGGGGSGGGGSGGGGSGGGGSEVQLVESGGGLVQPGGSLRLSCTVSGFSLTNYGVHWVRQAPGKGLEWVGVIWSGGNTDYNTPFTSRFTISRDTSKNTVYLQMNSLRAEDTAVYYCARALTYYDYEFAYWGQGTLVTVSSGSHHHHHH
notes: the entry holds the whole construct; also called H1 scFv-6His; humanized scFv
Consider B1, for which the Kd (commonly the concentration at which binding is half-saturated) with His-tagged human EGFR [1] was determined as 12 nM. In addition, in the assay with His-tagged human EGFR [2], the affinity, expressed as Kd, was 12 nM; the koff (usually the first-order rate constant of dissociation) was found to be 0.0107 s⁻¹; the kon – broadly, a measure of how fast the partners come together – was 894000 M⁻¹ s⁻¹.

B2: SI-68P17 (other)
heavy: DVVMTQSPSTLSASVGDRVTINCQASESISSWLAWYQQKPGKAPKLLIYEASKLASGVPSRFSGSGSGTEFTLTISSLQPDDFATYYCQGYFYFISRTYVNSFGGGTKVEIKGGGGSGGGGSGGGGSGGGGSEVQLVESGGGLVQPGGSLRLSCAASGFTISTNAMSWVRQAPGKGLEWIGVITGRDITYYASWAKGRFTISRDNSKNTLYLQMNSLRAEDTAVYYCARDGGSSAITSNNIWGQGTLVTVSSGGGGSGGGGSQVQLQQSGPGLVKPSETLSITCTVSGFSLTNYGVHWIRQAPGKGLEWLGVIWSGGNTDYNTPFTSRFTITKDNSKNQVYFKLRSVRADDTAIYYCARALTYYDYEFAYWGQGTLVTVSSASTKGPSVFPLAPSSKSTSGGTAALGCLVKDYFPEPVTVSWNSGALTSGVHTFPAVLQSSGLYSLSSVVTVPSSSLGTQTYICNVNHKPSNTKVDKRVEPKSCDKTHTCPPCPAPEAAGGPSVFLFPPKPKDTLMISRTPEVTCVVVDVSHEDPEVKFNWYVDGVEVHNAKTKPREEQYNSTYRVVSVLTVLHQDWLNGKEYKCAVSNKALPAPIEKTISKAKGQPREPQVYTLPPSRDELTKNQVSLSCAVKGFYPSDIAVEWESNGQPENNYKTTPPVLDSDGSFFLVSKLTVDKSRWQQGNVFSCSVMHEALHNHYTQKSLSLSPGGGGGSGGGGSDVVMTQSPSSVSASVGDRVTITCQASQNIRTYLSWYQQKPGKAPKLLIYAAANLASGVPSRFSGSGSGTDFTLTISDLEPGDAATYYCQSTYLGTDYVGGAFGGGTKLTVLGGGGSGGGGSGGGGSGGGGSEVQLVESGGGLVQPGGSLRLSCTASGFTISSYHMQWVRQAPGKGLEYIGTISSGGNVYYASSARGRFTISRPSSKNTVDLQMNSLRAEDTAVYYCARDSGYSDPMWGQGTLVTVSS
light: ENVLTQSPASLSASPGERVTITCSASSSVSYMHWYQQKPGQAPKLWIYDTSKLASGVPSRFSGSGSGNDHTLTISSMEPEDFATYYCFQGSVYPFTFGQGTKVTVLGGGGSGGGGSGGGGSGGGGSQVTLKESGPGLVQPGQTLSLTCAFSGFSLSTSGMGVGWIRQPPGKGLEWLAHIWWDDDKRYNPALKSRLTISKDTSKNQVYLQMNSLDAEDTAVYYCARMELWSYYFDYWGQGTLVTVSSGGGGSGGGGSEIVLTQSPSTLSVSPGERATFSCRASQSIGTNIHWYQQKPGKPPRLLIKYASESISGIPDRFSGSGSGTEFTLTISSVQSEDFAVYYCQQNNNWPTTFGPGTKLTVLRTVAAPSVFIFPPSDEQLKSGTASVVCLLNNFYPREAKVQWKVDNALQSGNSQESVTEQDSKDSTYSLSSTLTLSKADYEKHKVYACEVTHQGLSSPVTKSFNRGECGGDKTHTCPPCPAPEAAGGPSVFLFPPKPKDTLMISRTPEVTCVVVDVSHEDPEVKFNWYVDGVEVHNAKTKPREEQYNSTYRVVSVLTVLHQDWLNGKEYKCAVSNKALPAPIEKTISKAKGQPREPQVYTLPPSRDELTKNQVSLWCLVKGFYPSDIAVEWESNGQPENNYKTTPPVLDSDGSFFLYSKLTVDKSRWQQGNVFSCSVMHEALHNRFTQKSLSLSPGGGGGSGGGGSDIQMTQSPSTLSASVGDRVTITCQASQSISSHLNWYQQKPGKAPKLLIYKASTLASGVPSRFSGSGSGTEFTLTISSLQPDDFATYYCQQGYSWGNVDNVFGGGTKVTVLGGGGSGGGGSGGGGSGGGGSEVQLLESGGGLVQPGGSLSLSCAASGFSFSSGYDMCWVRQAPGKGLEWIACIAAGSAGITYDANWAKGRFTISRDNSKNTLYLQMNSLRAEDTAVYYCARSAFSFDYAMDLWGQGTLVTVSS
In the case of B2, the “TDCC EC50 (pM)” value with EGFR on BxPC-3 cells [3] was 0.322 pM.

B3: SI-79X3 (bispecific antibody, human IgG1, kappa)
heavy 1: QVQLQQSGPGLVKPSETLSITCTVSGFSLTNYGVHWIRQAPGKGLEWLGVIWSGGNTDYNTPFTSRFTITKDNSKNQVYFKLRSVRADDTAIYYCARALTYYDYEFAYWGQGTLVTVSSASTKGPSVFPLAPSSKSTSGGTAALGCLVKDYFPEPVTVSWNSGALTSGVHTFPAVLQSSGLYSLSSVVTVPSSSLGTQTYICNVNHKPSNTKVDKRVEPKSCDKTHTCPPCPAPEAAGAPSVFLFPPKPKDTLMISRTPEVTCVVVDVSHEDPEVKFNWYVDGVEVHNAKTKPREEQYNSTYRVVSVLTVLHQDWLNGKEYKCAVSNKALPAPIEKTISKAKGQPREPQVYTLPPSRDELTKNQVSLTCLVKGFYPSDIAVEWESNGQPENNYKTTPPVLDSDGSFFLYSRLTVDKSRWQQGNVFSCSVMHEALHNHYTQKSLSLSPG
heavy 2: not shown
light 1: EIVLTQSPSTLSVSPGERATFSCRASQSIGTNIHWYQQKPGKPPRLLIKYASESISGIPDRFSGSGSGTEFTLTISSVQSEDFAVYYCQQNNNWPTTFGPGTKLTVLRTVAAPSVFIFPPSDEQLKSGTASVVCLLNNFYPREAKVQWKVDNALQSGNSQESVTEQDSKDSTYSLSSTLTLSKADYEKHKVYACEVTHQGLSSPVTKSFNRGEC
light 2: not shown
On to B3, for which the “*EC50 (pM), TDCC, depletion of luciferized BxPC3 cells with activated T cells” value with EGFR on BxPC-3 cells [4] turned out to be 20.3 pM.
